The numbers were not newly measured in paper PMC2888655, which cites them from elsewhere.

The target in data set [1] is IGF1 (Homo sapiens) (UniProt P05019). In words: SPR. (In general: Surface plasmon resonance follows binding to a sensor surface in real time, without labels.)
Data set [2] addresses IGF2 (Homo sapiens) (UniProt P01344). In words: SPR.
In data set [3] the target is IGF1 (Homo sapiens) (UniProt P05019).
In data set [4] the target is IGF2 (Homo sapiens) (UniProt P01344).

pKd: −log10 of the molar value. Like-named read-outs stand apart in the source and are kept apart here.

Sequence of IGF1R (from UniProt Q05688) (Q05688 14-208): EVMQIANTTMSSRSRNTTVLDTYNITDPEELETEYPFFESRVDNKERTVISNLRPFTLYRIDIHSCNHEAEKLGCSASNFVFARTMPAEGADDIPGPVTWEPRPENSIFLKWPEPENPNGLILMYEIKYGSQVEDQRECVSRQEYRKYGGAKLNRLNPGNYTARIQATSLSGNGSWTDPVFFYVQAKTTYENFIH
Sequence of IGF1 (Homo sapiens) (P05019 49-118): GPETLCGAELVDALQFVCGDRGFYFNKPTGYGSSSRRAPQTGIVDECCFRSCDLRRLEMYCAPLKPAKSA
Sequence of IGF2 (Homo sapiens) (P01344 25-91): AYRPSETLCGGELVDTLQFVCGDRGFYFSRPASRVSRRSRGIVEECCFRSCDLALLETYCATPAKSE
Sequence of IGF1R (from UniProt P08069) (P08069 31-736): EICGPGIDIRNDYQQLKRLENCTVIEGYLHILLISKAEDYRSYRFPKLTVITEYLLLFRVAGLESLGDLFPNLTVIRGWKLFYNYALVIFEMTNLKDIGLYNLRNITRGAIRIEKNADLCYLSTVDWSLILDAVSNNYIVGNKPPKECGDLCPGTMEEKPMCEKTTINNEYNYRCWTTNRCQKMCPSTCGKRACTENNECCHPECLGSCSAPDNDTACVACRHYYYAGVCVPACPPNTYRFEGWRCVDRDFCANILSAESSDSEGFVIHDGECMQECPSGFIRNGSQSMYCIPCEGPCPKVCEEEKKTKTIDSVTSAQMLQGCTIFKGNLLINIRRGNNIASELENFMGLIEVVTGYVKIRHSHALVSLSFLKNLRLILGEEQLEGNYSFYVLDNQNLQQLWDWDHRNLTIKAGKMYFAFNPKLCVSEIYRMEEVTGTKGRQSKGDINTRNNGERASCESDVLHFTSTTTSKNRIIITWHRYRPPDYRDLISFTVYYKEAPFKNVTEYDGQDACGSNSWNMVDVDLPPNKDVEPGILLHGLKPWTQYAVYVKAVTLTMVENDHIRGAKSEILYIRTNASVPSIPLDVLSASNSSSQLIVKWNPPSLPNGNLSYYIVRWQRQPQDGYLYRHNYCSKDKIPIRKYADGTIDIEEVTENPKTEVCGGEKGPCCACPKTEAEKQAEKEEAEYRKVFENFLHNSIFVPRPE
Sequence of IGF1R (from UniProt P08069) (P08069 741-935): as the sequence (Q05688 14-208) above, with E1D, I5V, V19A, L20A, T189G counted along it

What is called pKd is −log10 of the Kd, conventionally taken in molar units. As for IGF1R (from UniProt P08069), the pKd with IGF1 (Homo sapiens) [1] was 8.35; in the data set with IGF2 (Homo sapiens) [2], 7.75.

Consider IGF1R (from UniProt Q05688), for which the pKd in the data set with IGF1 (Homo sapiens) [3] and in the data set with IGF2 (Homo sapiens) [4] was 9.00 each time.
